Experimental data: the supplement of paper PMC10065799, “High-throughput profiling of sequence recognition by tyrosine kinases and SH2 domains using bacterial peptide display” (eLife, 2023)

Legend:
MERTK = MERTK (UniProt Q12866); assay: phosphorylation enrichment, bacterial display (enrichment ratio); higher = better substrate or ligand; peptides without Tyr show the background
Fer (mouse) = assay: as above
Fyn = Fyn (UniProt P06241); assay: as above
EPHB1 = EPHB1 (UniProt P54762); assay: as above
Sequence of EPHB1 (P54762 whole entry, looked up): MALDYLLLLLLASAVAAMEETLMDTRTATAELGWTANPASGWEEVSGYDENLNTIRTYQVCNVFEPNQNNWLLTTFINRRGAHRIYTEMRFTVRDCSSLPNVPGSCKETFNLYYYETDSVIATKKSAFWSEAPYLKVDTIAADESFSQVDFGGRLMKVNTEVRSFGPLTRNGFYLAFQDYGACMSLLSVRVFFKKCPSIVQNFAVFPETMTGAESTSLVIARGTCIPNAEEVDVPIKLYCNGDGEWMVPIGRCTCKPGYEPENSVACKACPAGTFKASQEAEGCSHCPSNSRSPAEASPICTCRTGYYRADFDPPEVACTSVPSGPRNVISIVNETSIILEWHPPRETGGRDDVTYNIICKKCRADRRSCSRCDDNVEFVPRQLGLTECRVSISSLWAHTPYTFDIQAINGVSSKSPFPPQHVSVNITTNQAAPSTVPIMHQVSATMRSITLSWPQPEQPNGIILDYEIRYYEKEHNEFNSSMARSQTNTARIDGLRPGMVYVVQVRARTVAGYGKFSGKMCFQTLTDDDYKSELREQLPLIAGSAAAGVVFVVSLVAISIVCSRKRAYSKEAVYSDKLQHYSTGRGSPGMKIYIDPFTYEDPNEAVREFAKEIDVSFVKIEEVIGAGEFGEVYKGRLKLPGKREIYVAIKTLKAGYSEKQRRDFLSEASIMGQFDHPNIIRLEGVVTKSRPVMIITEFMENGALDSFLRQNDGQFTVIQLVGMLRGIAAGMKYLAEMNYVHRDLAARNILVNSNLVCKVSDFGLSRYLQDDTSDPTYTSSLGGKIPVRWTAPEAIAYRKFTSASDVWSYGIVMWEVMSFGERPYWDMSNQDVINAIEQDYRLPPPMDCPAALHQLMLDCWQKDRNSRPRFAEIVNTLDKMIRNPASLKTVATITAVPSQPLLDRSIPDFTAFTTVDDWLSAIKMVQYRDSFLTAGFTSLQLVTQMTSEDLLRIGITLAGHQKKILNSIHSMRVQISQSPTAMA

AncSZ = assay: as above
FGFR1 = FGFR1 (UniProt P11362); assay: as above
Sequence of FGFR1 (P11362 whole entry, looked up): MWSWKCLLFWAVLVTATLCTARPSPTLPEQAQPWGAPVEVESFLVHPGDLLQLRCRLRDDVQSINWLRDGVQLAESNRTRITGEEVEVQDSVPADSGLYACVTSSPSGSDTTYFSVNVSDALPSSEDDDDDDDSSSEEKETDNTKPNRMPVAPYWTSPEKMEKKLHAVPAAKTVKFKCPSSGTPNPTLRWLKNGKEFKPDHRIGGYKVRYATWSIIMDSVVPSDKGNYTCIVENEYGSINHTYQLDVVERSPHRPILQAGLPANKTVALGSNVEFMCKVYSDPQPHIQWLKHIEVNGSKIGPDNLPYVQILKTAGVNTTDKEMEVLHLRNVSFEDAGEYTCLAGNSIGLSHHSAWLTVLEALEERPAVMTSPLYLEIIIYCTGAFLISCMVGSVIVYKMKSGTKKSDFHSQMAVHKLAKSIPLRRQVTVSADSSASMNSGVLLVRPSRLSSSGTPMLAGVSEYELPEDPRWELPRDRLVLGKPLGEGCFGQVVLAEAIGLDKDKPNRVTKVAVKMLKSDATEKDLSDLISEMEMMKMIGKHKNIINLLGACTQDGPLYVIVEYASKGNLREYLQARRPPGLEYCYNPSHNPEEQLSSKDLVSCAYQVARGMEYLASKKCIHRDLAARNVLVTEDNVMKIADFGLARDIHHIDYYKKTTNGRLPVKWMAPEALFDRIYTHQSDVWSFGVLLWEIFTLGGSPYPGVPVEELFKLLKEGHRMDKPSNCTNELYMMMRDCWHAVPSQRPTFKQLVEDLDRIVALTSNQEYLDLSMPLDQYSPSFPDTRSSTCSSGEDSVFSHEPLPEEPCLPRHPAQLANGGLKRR

Jak2 = Jak2 (UniProt O60674); assay: as above
c-Src = assay: as above
c-Abl (mouse) = assay: as above
Fes = Fes (UniProt P07332); assay: as above
Sequence of Fes (P07332 whole entry, looked up): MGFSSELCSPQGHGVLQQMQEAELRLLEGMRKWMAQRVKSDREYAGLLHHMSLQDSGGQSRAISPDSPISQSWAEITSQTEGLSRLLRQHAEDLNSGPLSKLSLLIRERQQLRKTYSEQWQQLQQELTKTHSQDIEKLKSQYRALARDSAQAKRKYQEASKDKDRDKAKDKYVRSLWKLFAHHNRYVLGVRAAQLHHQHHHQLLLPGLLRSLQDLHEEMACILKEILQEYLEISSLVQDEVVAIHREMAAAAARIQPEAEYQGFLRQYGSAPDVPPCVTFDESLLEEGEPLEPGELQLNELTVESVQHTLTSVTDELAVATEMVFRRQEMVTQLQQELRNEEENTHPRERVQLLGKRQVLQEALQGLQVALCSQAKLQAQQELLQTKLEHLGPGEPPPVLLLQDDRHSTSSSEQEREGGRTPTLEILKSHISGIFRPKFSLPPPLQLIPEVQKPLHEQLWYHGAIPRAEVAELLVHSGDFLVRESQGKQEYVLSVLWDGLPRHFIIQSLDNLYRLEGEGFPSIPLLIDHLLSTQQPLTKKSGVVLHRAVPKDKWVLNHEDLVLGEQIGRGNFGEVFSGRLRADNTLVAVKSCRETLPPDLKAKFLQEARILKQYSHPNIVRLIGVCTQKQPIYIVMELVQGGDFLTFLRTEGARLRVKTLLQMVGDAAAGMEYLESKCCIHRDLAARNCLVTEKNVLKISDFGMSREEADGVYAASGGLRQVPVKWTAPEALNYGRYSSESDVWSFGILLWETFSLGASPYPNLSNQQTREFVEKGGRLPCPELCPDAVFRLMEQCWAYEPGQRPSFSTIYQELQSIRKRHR

FGFR3 = FGFR3 (UniProt P22607); assay: as above
Sequence of FGFR3 (P22607 whole entry, looked up): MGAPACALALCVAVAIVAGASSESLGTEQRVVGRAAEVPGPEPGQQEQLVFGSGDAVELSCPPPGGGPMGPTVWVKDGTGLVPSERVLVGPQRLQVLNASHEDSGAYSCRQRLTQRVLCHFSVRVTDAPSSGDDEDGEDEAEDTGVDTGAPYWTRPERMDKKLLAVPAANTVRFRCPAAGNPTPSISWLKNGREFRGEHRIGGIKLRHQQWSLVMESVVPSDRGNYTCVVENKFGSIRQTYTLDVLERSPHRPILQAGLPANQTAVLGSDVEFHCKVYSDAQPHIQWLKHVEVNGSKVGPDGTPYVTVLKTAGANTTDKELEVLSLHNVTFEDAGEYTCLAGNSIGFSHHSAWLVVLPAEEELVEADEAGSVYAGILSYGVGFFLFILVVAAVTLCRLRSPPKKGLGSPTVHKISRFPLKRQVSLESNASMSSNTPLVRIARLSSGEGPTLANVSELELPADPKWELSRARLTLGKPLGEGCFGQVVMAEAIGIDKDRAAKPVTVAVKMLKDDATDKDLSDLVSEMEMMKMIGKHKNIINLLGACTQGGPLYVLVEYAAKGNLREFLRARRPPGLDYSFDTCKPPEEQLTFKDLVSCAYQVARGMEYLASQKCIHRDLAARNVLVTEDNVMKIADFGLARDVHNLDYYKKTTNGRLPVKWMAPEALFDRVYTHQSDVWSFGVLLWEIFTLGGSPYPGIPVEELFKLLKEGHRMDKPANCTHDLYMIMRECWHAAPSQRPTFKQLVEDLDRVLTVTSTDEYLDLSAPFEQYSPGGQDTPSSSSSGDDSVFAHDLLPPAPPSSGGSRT

Hck = Hck (UniProt P08631); assay: as above
Sequence of Hck (P08631 whole entry, looked up): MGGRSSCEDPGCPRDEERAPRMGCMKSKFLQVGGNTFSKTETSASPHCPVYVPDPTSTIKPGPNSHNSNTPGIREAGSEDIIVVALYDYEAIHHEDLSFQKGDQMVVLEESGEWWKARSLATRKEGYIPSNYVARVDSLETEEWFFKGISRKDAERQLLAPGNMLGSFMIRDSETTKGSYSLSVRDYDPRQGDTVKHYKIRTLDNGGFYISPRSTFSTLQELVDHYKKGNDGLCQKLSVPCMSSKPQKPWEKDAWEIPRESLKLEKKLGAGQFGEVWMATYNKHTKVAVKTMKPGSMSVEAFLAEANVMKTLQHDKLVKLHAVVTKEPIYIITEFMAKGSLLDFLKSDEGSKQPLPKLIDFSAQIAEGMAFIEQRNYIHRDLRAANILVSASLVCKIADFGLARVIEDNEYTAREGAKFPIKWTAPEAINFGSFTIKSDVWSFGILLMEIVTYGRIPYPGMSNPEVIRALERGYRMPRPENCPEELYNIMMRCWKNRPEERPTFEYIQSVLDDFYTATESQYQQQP

EPHB2 = EPHB2 (UniProt P29323); assay: as above
SHP2-C SH2 = assay: SH2 binding enrichment of the phosphorylated peptide, bacterial display (enrichment ratio); higher = better substrate or ligand; peptides without Tyr show the background
Grb2 SH2 = Grb2 SH2 (UniProt P62993); assay: as above
c-Src SH2 = assay: as above
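For SH2 binding enrichment of the phosphorylated peptide, bacterial display in this document: peptide library displayed on the E. coli surface as eCPX fusions, selected cells deep-sequenced, score is each peptide's frequency after selection divided by its frequency in the input.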
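For phosphorylation enrichment, bacterial display in this document: 11-residue human phosphosite peptides and single-mutation variants displayed on the E. coli surface, counted by deep sequencing, each peptide's frequency after selection divided by its frequency in the unselected input library; frequency after pTyr selection over input frequency; kinase dosed for 20-30% of maximal phosphorylation in three min.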

Sequence of MERTK (Q12866 whole entry, looked up): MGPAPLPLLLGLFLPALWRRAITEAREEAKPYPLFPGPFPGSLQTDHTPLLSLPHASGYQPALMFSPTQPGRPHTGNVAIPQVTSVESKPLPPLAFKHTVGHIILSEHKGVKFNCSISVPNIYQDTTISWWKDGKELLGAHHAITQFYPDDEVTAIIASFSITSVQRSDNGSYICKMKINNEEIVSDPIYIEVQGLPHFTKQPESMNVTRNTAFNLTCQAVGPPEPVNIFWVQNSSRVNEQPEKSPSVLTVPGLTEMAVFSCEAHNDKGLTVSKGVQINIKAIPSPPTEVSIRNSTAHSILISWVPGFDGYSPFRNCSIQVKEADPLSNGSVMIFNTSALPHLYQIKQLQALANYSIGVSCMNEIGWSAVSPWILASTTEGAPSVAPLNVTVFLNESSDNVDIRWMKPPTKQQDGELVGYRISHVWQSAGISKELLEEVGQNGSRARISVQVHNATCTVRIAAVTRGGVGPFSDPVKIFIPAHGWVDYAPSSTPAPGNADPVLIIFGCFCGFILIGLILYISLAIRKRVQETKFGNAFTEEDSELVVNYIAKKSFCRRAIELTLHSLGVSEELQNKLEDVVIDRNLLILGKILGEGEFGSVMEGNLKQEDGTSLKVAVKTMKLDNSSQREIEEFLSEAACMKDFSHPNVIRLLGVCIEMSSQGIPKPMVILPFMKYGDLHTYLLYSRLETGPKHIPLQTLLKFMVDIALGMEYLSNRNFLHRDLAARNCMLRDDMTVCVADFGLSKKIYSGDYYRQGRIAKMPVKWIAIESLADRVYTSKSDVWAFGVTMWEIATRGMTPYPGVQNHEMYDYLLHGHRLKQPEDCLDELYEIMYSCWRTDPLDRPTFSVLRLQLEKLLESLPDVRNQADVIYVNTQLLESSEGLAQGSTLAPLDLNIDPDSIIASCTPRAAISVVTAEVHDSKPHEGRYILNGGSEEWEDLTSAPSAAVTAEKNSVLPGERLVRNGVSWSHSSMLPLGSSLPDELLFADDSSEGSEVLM

SH2 binding enrichment (SHP2-C SH2)	SH2 binding enrichment (Grb2 SH2)	SH2 binding enrichment (c-Src SH2)	Sequence	phosphorylation enrichment (MERTK)	phosphorylation enrichment (Fer (mouse))	phosphorylation enrichment (Fyn)	phosphorylation enrichment (EPHB1)	phosphorylation enrichment (AncSZ)	phosphorylation enrichment (FGFR1)	phosphorylation enrichment (Jak2)	phosphorylation enrichment (c-Src)	phosphorylation enrichment (c-Abl (mouse))	phosphorylation enrichment (Fes)	phosphorylation enrichment (FGFR3)	phosphorylation enrichment (Hck)	phosphorylation enrichment (EPHB2)
1.01	0.881	2.97	HNVPIYEGYAL [ACTA1_Y168]	13.1	24.7	16.9	26	1.56	0.792	1.06	12.6	13.2	5.3	0.616	15.1	35.1
0.893	1	0.695	VRSNHYAPEED [TJP1_Y1346_D1347A]	0.462	0.469	0.473	0.529	0.941	0.426	0.955	0.434	0.728	0.984	0.605	0.498	0.611
0.834	0.922	0.666	QQIYTYDSGIH [JUP_Y22_T19I]	11.1	4.16	10.3	3.57	1.02	1.86	0.788	6.68	0.91	0.923	1.84	4.94	1.98
1.3	1.53	1.42	PSQRPYVFFFS [PTEN_Y174_R173P_YF]	0.755	0.693	0.605	0.726	1.27	2.12	1.21	0.973	1.25	1.51	1.14	0.439	0.559
0.892	0.934	0.591	AVEDQYFRVDC [FHL1_Y207_C209R_YF]	0.499	0.626	0.552	0.655	2.04	4.27	1.6	0.519	0.838	1.38	3.33	0.542	0.568
1	1.16	0.851	PKSLFYLLLKP [TRPC6_Y775_L780P]	0.963	0.568	0.439	0.759	1.64	0.708	1.73	0.684	1.31	2.1	1.12	0.513	0.569
0.645	0.89	0.655	GKTFTYHSVFF [ZNF80_Y200_R201H]	0.46	0.655	0.596	0.602	1.31	0.618	1.3	0.999	1	1.25	0.904	0.592	0.547
0.762	0.821	0.413	HNGDRYFKGIV [DCX_Y64_R59H]	0.692	0.366	0.515	0.449	0.707	0.286	0.529	0.585	0.585	0.716	0.542	0.429	0.344
0.369	1.62	0.787	PTFENYANSTQ [SLC12A3_Y70_H69N_YF]	0.572	0.52	0.437	0.542	0.853	0.615	0.895	0.391	0.531	1.08	0.539	0.766	0.711
1.61	1.38	1.21	QGLRLYRAHLA [BTK_Y617_P619A]	0.582	0.467	0.576	0.587	1.43	0.521	0.878	0.523	0.854	0.978	0.677	0.497	0.602
0.705	0.886	0.825	GVCKNYAEAKD [ALB_Y343_D338G]	0.385	0.359	0.371	0.469	0.749	0.551	0.556	0.392	0.6	0.729	0.585	0.498	0.511
0.987	0.926	0.561	VVGMLYVGRLP [LAMA2_Y2886_G2889R]	0.426	0.552	0.442	0.481	1.22	0.647	0.98	0.422	0.654	1.04	0.602	0.455	0.643
0.626	0.807	1.88	YEPDAYYDLDQ [ELP5_Y302_D303Y]	0.65	0.919	1.62	1.05	1.82	8.16	1.61	2.06	0.861	1.56	6.94	0.852	0.833
0.548	0.721	0.425	RMSRSYPTGLA [ADM_Y52_S50R]	0.454	0.319	0.381	0.382	0.497	0.36	0.42	0.377	0.594	0.594	0.459	0.39	0.349
0.68	0.826	0.537	NDFGNYNNQSS [HNRNPA1_Y318]	0.285	0.322	0.333	0.392	0.523	0.417	0.49	0.343	0.874	0.695	0.419	0.417	0.352
0.746	0.894	0.765	RFLRGYEQDAF [HLA-A_Y137_R138E_YF]	0.536	0.51	0.636	0.498	0.935	0.466	1.36	0.533	0.778	1.21	0.586	0.629	0.555
0.546	0.803	0.624	LENQTYFRSFE [AKAP9_Y2482_K2484R]	0.537	0.632	0.851	0.487	0.881	0.571	1.09	0.55	0.843	1.14	1.02	0.678	0.811
0.654	0.839	1.11	AAPAAYDAADT [GAMT_Y27]	0.461	0.526	0.522	0.479	1.1	0.529	0.857	0.513	0.782	0.97	0.683	0.495	0.5
0.772	0.699	0.307	QGIIIYRAAFF [SLC25A4_Y187_YF]	0.61	0.581	0.342	0.605	1.21	0.327	1.17	0.542	1.04	1.69	0.634	0.422	0.338
0.829	0.95	3.54	LGQGKYSEVFE [CSNK2A1_Y50_R47Q]	0.535	0.455	0.489	0.508	1.05	0.51	0.857	0.574	0.709	1	0.591	0.477	0.552
0.707	0.683	0.432	LLPNAYIYVVQ [L1CAM_Y418_A415P]	1.01	0.539	1.05	1.71	2.28	1.34	1.69	1	1.07	2.47	1.5	0.908	1.32
0.701	1	0.773	LDLSFYHTSSS [EMD_Y182_P183H_YF]	0.414	0.423	0.553	0.845	1.21	0.575	1.04	0.879	0.644	1.19	0.903	0.575	0.676
1.23	0.99	0.522	TRDVNYGWIIH [MT-CYB_Y75_R80H]	1.98	4.76	0.508	0.938	1.06	0.703	1.15	0.524	0.908	1.11	0.736	0.523	1.14
0.433	0.952	0.524	AVARMYGVLPW [PLP1_Y207_D203V]	0.491	0.505	2.46	0.411	0.689	0.524	0.666	2.19	0.656	0.866	0.536	3.59	0.644
0.972	1.08	0.437	VERIHYIGQNE [HMOX2_Y140]	0.522	0.434	0.494	0.351	0.617	0.555	0.553	0.368	0.344	0.638	0.381	0.453	0.47
0.531	0.822	0.51	TRRSSYEDSSL [HNF4A_Y144]	0.5	0.447	0.53	0.379	1.2	0.42	0.465	0.447	0.402	0.707	0.57	0.457	0.529
0.616	1.29	0.829	HNQDDYSYPSR [LDLR_Y845_G844D]	0.653	0.567	0.664	1.2	5.73	0.82	0.751	0.597	0.776	0.856	0.79	0.651	2.52
4.29	0.755	0.757	VYLGAYDHFLP [SLC22A5_Y486_R488H]	9.45	7.24	6.16	4.38	2.28	1.6	1.39	6.2	2.69	1.25	1.62	5.47	7.25
0.685	0.821	1.2	TEHMAYCPIQC [SHC4_Y403_Q400H]	0.416	0.557	0.466	0.489	0.72	0.458	0.778	0.764	0.661	0.821	0.638	0.805	0.524
